In US20230212549A1 (3B PHARMACEUTICALS, published 2023):
Numbered stars: 1 amine (or outer) side, 2 acyl side, 3 side chain; on linkers, the order of the positions; unused ones are H or OH. Bridge positions count the residues as written; N and C are the ends. Square brackets hold non-standard residues; d marks the D form. Primed or numbered codes have the meaning given here. * marks the point of attachment. tMeBn(DOTA-PP) = 1,3,5-trimethylbenzylidene, two thioethers to Cys, third CH2 bound to one N of piperazine whose other N bears DOTA, O=C(O)CN1CCN(CC(=O)O)CCN(CC(=O)N2CCN(Cc3cc(C[*:1])cc(C[*:2])c3)CC2)CCN(CC(=O)O)CC1; Ttds″ = 1,13-diamino-4,7,10-trioxatridecan-succinamic acid spacer, O=C(CCC(=O)[*:2])NCCCOCCOCCOCCCN[*:1]; TBMB(SCH2CH2NH-DOTA) = O=C(O)CN1CCN(CC(=O)O)CCN(CC(=O)NCCSCc2cc(C[*:1])cc(C[*:2])c2)CCN(CC(=O)O)CC1; Ttds = 1,13-diamino-4,7,10-trioxatridecan-succinamic acid, O=C(CCC(=O)[*:2])NCCCOCCOCCOCCCN[*:1]; DOTA = O=C(O)CN1CCN(CC(=O)O)CCN(CC(=O)*)CCN(CC(=O)O)CC1; mXylylene = c1cc(C[*:1])cc(C[*:2])c1; Pentanesulfonyl = CCCCCS(=O)(=O)*; NMeF = CN[C@@H](Cc1ccccc1)C(=O)O; 4Pal = N[C@@H](Cc1ccncc1)C(=O)O; Tic = O=C(O)[C@@H]1Cc2ccccc2CN1; Aic = NC1(C(=O)O)Cc2ccccc2C1; Nle = CCCC[C@H](N)C(=O)O; Hexanoyl = CCCCCC(=O)*

Tests used:
[1] = biological target: T1, fibroblast activation protein (FAP) on FAP-expressing human WI-38 fibroblasts (human, UniProt Q12884 1-760); test: competitive FACS, WI-38 cells, vs Cy5 tracer m3; A = pIC50 >8.0
T1 construct: also called human FAP

[2] = biological target: Recombinant human FAP (R&D systems, #3715-SE) (human, UniProt Q12884 26-760); test: cell-based or functional assay

Binder	pIC50 Category (FACS) [1]	pIC50 Category (Activity) [2]
Hexanoyl-CPPTQFCD-NH2 (linker 1-7 via tMeBn(GaDOTA-PP); also: gallium complex of DOTA, also called 3BP-3592) [Hex-[Cys(tMeBn(GaDOTA-PP))-Pro-Pro-Thr-Gln-Phe-Cys]-Asp-NH2]	> 8 pIC50	> 8 pIC50
Hexanoyl-CPPTEFCDHFRD[Ttds″]K(DOTA)-NH2 (linker 1-7 via mXylylene; SMILES CCCCCC(=O)N[C@H]1CSCc2cccc(c2)CSC[C@@H](C(=O)N[C@@H](CC(=O)O)C(=O)N[C@@H](Cc2c[nH]cn2)C(=O)N[C@@H](Cc2ccccc2)C(=O)N[C@@H](CCCNC(=N)N)C(=O)N[C@@H](CC(=O)O)C(=O)NCCCOCCOCCOCCCNC(=O)CCC(=O)N[C@@H](CCCCNC(=O)CN2CCN(CC(=O)O)CCN(CC(=O)O)CCN(CC(=O)O)CC2)C(N)=O)NC(=O)[C@H](Cc2ccccc2)NC(=O)[C@H](CCC(=O)O)NC(=O)[C@H]([C@@H](C)O)NC(=O)[C@@H]2CCCN2C(=O)[C@@H]2CCCN2C1=O) [Hex-[Cys(3MeBn)-Pro-Pro-Thr-Glu-Phe-Cys]-Asp-His-Phe-Arg-Asp-Ttds-Lys(DOTA)-NH2]	> 8 pIC50	> 8 pIC50
{DOTA}-[Ttds][Nle]CPPTEFCDHFRD-NH2 (linker 3-9 via mXylylene; SMILES CCCC[C@H](NC(=O)CCC(=O)NCCCOCCOCCOCCCNC(=O)CN1CCN(CC(=O)O)CCN(CC(=O)O)CCN(CC(=O)O)CC1)C(=O)N[C@H]1CSCc2cccc(c2)CSC[C@@H](C(=O)N[C@@H](CC(=O)O)C(=O)N[C@@H](Cc2c[nH]cn2)C(=O)N[C@@H](Cc2ccccc2)C(=O)N[C@@H](CCCNC(=N)N)C(=O)N[C@@H](CC(=O)O)C(N)=O)NC(=O)[C@H](Cc2ccccc2)NC(=O)[C@H](CCC(=O)O)NC(=O)[C@H]([C@@H](C)O)NC(=O)[C@@H]2CCCN2C(=O)[C@@H]2CCCN2C1=O) [DOTA-Ttds-Nle-[Cys(3MeBn)-Pro-Pro-Thr-Glu-Phe-Cys]-Asp-His-Phe-Arg-Asp-NH2]	> 8 pIC50	> 8 pIC50
Hexanoyl-CPPTQFCD-NH2 (linker 1-7 via tMeBn(EuDOTA-PP); also: europium complex of DOTA, also called 3BP-3661) [Hex-[Cys(tMeBn(EuDOTA-PP))-Pro-Pro-Thr-Gln-Phe-Cys]-Asp-NH2]	> 8 pIC50	> 8 pIC50
CPPTQFCD (N-term Hex; Cys1/Cys7 thioether-bridged by tMeBn carrying DOTA-AET; D-Asp8; C-term amide, also called 3BP-3681) [Hex-[Cys(tMeBn(DOTA-AET))-Pro-Pro-Thr-Gln-Phe-Cys]-asp-NH2]	> 8 pIC50	> 8 pIC50
{DOTA}-[Ttds]MCPPTEFCDHFRD-NH2 (linker 3-9 via mXylylene; SMILES CSCC[C@H](NC(=O)CCC(=O)NCCCOCCOCCOCCCNC(=O)CN1CCN(CC(=O)O)CCN(CC(=O)O)CCN(CC(=O)O)CC1)C(=O)N[C@H]1CSCc2cccc(c2)CSC[C@@H](C(=O)N[C@@H](CC(=O)O)C(=O)N[C@@H](Cc2c[nH]cn2)C(=O)N[C@@H](Cc2ccccc2)C(=O)N[C@@H](CCCNC(=N)N)C(=O)N[C@@H](CC(=O)O)C(N)=O)NC(=O)[C@H](Cc2ccccc2)NC(=O)[C@H](CCC(=O)O)NC(=O)[C@H]([C@@H](C)O)NC(=O)[C@@H]2CCCN2C(=O)[C@@H]2CCCN2C1=O) [DOTA-Ttds-Met-[Cys(3MeBn)-Pro-Pro-Thr-Glu-Phe-Cys]-Asp-His-Phe-Arg-Asp-NH2]	> 8 pIC50	> 8 pIC50
{DOTA}-[Ttds″]LCPPTEFCDHFRD-NH2 (linker 3-9 via mXylylene; SMILES CC(C)C[C@H](NC(=O)CCC(=O)NCCCOCCOCCOCCCNC(=O)CN1CCN(CC(=O)O)CCN(CC(=O)O)CCN(CC(=O)O)CC1)C(=O)N[C@H]1CSCc2cccc(c2)CSC[C@@H](C(=O)N[C@@H](CC(=O)O)C(=O)N[C@@H](Cc2c[nH]cn2)C(=O)N[C@@H](Cc2ccccc2)C(=O)N[C@@H](CCCNC(=N)N)C(=O)N[C@@H](CC(=O)O)C(N)=O)NC(=O)[C@H](Cc2ccccc2)NC(=O)[C@H](CCC(=O)O)NC(=O)[C@H]([C@@H](C)O)NC(=O)[C@@H]2CCCN2C(=O)[C@@H]2CCCN2C1=O, also called 3BP-3172) [DOTA-Ttds-Leu-[Cys(3MeBn)-Pro-Pro-Thr-Glu-Phe-Cys]-Asp-His-Phe-Arg-Asp-NH2]	> 8 pIC50	> 8 pIC50
Ac-[dM]CPPTEFCDHFRD-NH2 (linker 2-8 via mXylylene; SMILES CSCC[C@@H](NC(C)=O)C(=O)N[C@H]1CSCc2cccc(c2)CSC[C@@H](C(=O)N[C@@H](CC(=O)O)C(=O)N[C@@H](Cc2c[nH]cn2)C(=O)N[C@@H](Cc2ccccc2)C(=O)N[C@@H](CCCNC(=N)N)C(=O)N[C@@H](CC(=O)O)C(N)=O)NC(=O)[C@H](Cc2ccccc2)NC(=O)[C@H](CCC(=O)O)NC(=O)[C@H]([C@@H](C)O)NC(=O)[C@@H]2CCCN2C(=O)[C@@H]2CCCN2C1=O, also called 3BP-3187) [Ac-met-[Cys(3MeBn)-Pro-Pro-Thr-Glu-Phe-Cys]-Asp-His-Phe-Arg-Asp-NH2]	> 8 pIC50	> 8 pIC50

Second part, the binder after the results:

pIC50 Category (FACS) [1]	pIC50 Category (Activity) [2]	Binder
> 8 pIC50	> 8 pIC50	Hexanoyl-CPPTQFCD-NH2 (linker 1-7 via tMeBn(InDOTA-PP); also: indium complex of DOTA, also called 3BP-3590) [Hex-[Cys(tMeBn(InDOTA-PP))-Pro-Pro-Thr-Gln-Phe-Cys]-Asp-NH2]
> 8 pIC50	> 8 pIC50	Hexanoyl-CPPTQFCD-NH2 (linker 1-7 via tMeBn(LuDOTA-PP); also: lutetium complex of DOTA, also called 3BP-3591) [Hex-[Cys(tMeBn(LuDOTA-PP))-Pro-Pro-Thr-Gln-Phe-Cys]-Asp-NH2]
> 8 pIC50	> 8 pIC50	Hexanoyl-CPPTQFCD-OH (linker 1-7 via TBMB(SCH2CH2NH-DOTA); SMILES CCCCCC(=O)N[C@H]1CSCc2cc(CSCCNC(=O)CN3CCN(CC(=O)O)CCN(CC(=O)O)CCN(CC(=O)O)CC3)cc(c2)CSC[C@@H](C(=O)N[C@@H](CC(=O)O)C(=O)O)NC(=O)[C@H](Cc2ccccc2)NC(=O)[C@H](CCC(N)=O)NC(=O)[C@H]([C@@H](C)O)NC(=O)[C@@H]2CCCN2C(=O)[C@@H]2CCCN2C1=O, also called 3BP-3665) [Hex-[Cys(tMeBn(DOTA-AET))-Pro-Pro-Thr-Gln-Phe-Cys]-Asp-OH]
> 8 pIC50	> 8 pIC50	Pentanesulfonyl-CPPTQFCD-NH2 (linker 1-7 via tMeBn(DOTA-PP); SMILES CCCCCS(=O)(=O)N[C@H]1CSCc2cc(cc(CN3CCN(C(=O)CN4CCN(CC(=O)O)CCN(CC(=O)O)CCN(CC(=O)O)CC4)CC3)c2)CSC[C@@H](C(=O)N[C@@H](CC(=O)O)C(N)=O)NC(=O)[C@H](Cc2ccccc2)NC(=O)[C@H](CCC(N)=O)NC(=O)[C@H]([C@@H](C)O)NC(=O)[C@@H]2CCCN2C(=O)[C@@H]2CCCN2C1=O, also called 3BP-3692) [Pentyl-SO2-[Cys(tMeBn(DOTA-PP))-Pro-Pro-Thr-Gln-Phe-Cys]-Asp-NH2]
> 8 pIC50	> 8 pIC50	CPPTQFX (not fully specified; N-term Hex; X7 = AET (2-aminoethanethiol, no carboxyl group); Cys1/AET7 thioether-bridged by tMeBn carrying InDOTA-AET (indium complex), also called 3BP-3713) [Hex-[Cys(tMeBn(InDOTA-AET))-Pro-Pro-Thr-Gln-Phe-AET]]
> 8 pIC50	> 8 pIC50	Ac-M[dC]PPTEFCDHFRD-NH2 (linker 2-8 via mXylylene; SMILES CSCC[C@H](NC(C)=O)C(=O)N[C@@H]1CSCc2cccc(c2)CSC[C@@H](C(=O)N[C@@H](CC(=O)O)C(=O)N[C@@H](Cc2c[nH]cn2)C(=O)N[C@@H](Cc2ccccc2)C(=O)N[C@@H](CCCNC(=N)N)C(=O)N[C@@H](CC(=O)O)C(N)=O)NC(=O)[C@H](Cc2ccccc2)NC(=O)[C@H](CCC(=O)O)NC(=O)[C@H]([C@@H](C)O)NC(=O)[C@@H]2CCCN2C(=O)[C@@H]2CCCN2C1=O, also called 3BP-3175) [Ac-Met-[cys(3MeBn)-Pro-Pro-Thr-Glu-Phe-Cys]-Asp-His-Phe-Arg-Asp-NH2]
> 8 pIC50	> 8 pIC50	Ac-MCPPTEFCDH[NMeF]RD-NH2 (linker 2-8 via mXylylene; SMILES CSCC[C@H](NC(C)=O)C(=O)N[C@H]1CSCc2cccc(c2)CSC[C@@H](C(=O)N[C@@H](CC(=O)O)C(=O)N[C@@H](Cc2c[nH]cn2)C(=O)N(C)[C@@H](Cc2ccccc2)C(=O)N[C@@H](CCCNC(=N)N)C(=O)N[C@@H](CC(=O)O)C(N)=O)NC(=O)[C@H](Cc2ccccc2)NC(=O)[C@H](CCC(=O)O)NC(=O)[C@H]([C@@H](C)O)NC(=O)[C@@H]2CCCN2C(=O)[C@@H]2CCCN2C1=O, also called 3BP-3188) [Ac-Met-[Cys(3MeBn)-Pro-Pro-Thr-Glu-Phe-Cys]-Asp-His-Nmf-Arg-Asp-NH2]
> 8 pIC50	> 8 pIC50	Ac-MCPPTEFCDH[Tic]RD-NH2 (linker 2-8 via mXylylene; SMILES CSCC[C@H](NC(C)=O)C(=O)N[C@H]1CSCc2cccc(c2)CSC[C@@H](C(=O)N[C@@H](CC(=O)O)C(=O)N[C@@H](Cc2c[nH]cn2)C(=O)N2Cc3ccccc3C[C@H]2C(=O)N[C@@H](CCCNC(=N)N)C(=O)N[C@@H](CC(=O)O)C(N)=O)NC(=O)[C@H](Cc2ccccc2)NC(=O)[C@H](CCC(=O)O)NC(=O)[C@H]([C@@H](C)O)NC(=O)[C@@H]2CCCN2C(=O)[C@@H]2CCCN2C1=O, also called 3BP-3189) [Ac-Met-[Cys(3MeBn)-Pro-Pro-Thr-Glu-Phe-Cys]-Asp-His-Tic-Arg-Asp-NH2]
> 8 pIC50	> 8 pIC50	Ac-MCPPTEFCDH[Aic]RD-NH2 (linker 2-8 via mXylylene; SMILES CSCC[C@H](NC(C)=O)C(=O)N[C@H]1CSCc2cccc(c2)CSC[C@@H](C(=O)N[C@@H](CC(=O)O)C(=O)N[C@@H](Cc2c[nH]cn2)C(=O)NC2(C(=O)N[C@@H](CCCNC(=N)N)C(=O)N[C@@H](CC(=O)O)C(N)=O)Cc3ccccc3C2)NC(=O)[C@H](Cc2ccccc2)NC(=O)[C@H](CCC(=O)O)NC(=O)[C@H]([C@@H](C)O)NC(=O)[C@@H]2CCCN2C(=O)[C@@H]2CCCN2C1=O, also called 3BP-3190) [Ac-Met-[Cys(3MeBn)-Pro-Pro-Thr-Glu-Phe-Cys]-Asp-His-Aic-Arg-Asp-NH2]
> 8 pIC50	> 8 pIC50	Ac-MCPPTEFCDH[4Pal]RD-NH2 (linker 2-8 via mXylylene, also called 3BP-3191) [Ac-Met-[Cys(3MeBn)-Pro-Pro-Thr-Glu-Phe-Cys]-Asp-His-Ppa-Arg-Asp-NH2]
> 8 pIC50	> 8 pIC50	Ac-MCPPTEFCDHXRD-NH2 (linker 2-8 via mXylylene; not fully specified (residue 11); printed as Ac-Met-[Cys(3MeBn)-Pro-Pro-Thr-Glu-Phe-Cys]-Asp-His-Mpa-Arg-Asp-NH2, also called 3BP-3192) [Ac-Met-[Cys(3MeBn)-Pro-Pro-Thr-Glu-Phe-Cys]-Asp-His-Mpa-Arg-Asp-NH2]
